{"source": "paper PMC10298792", "about": "“Structural basis for proapoptotic activation of Bak by the noncanonical BH3-only protein Pxt1” (PLOS Biology, 2023)", "binders": {"B1": {"name": "C-terminal His6-tagged human Bak (residues 23–185;C166S) (domain or fragment, UniProt Q16611 23-185, looked up)", "chain": "SEEQVAQDTEEVFRSYVFYRHQQEQEAEGVAAPADPEMVTLPLQPSSTMGQVGRQLAIIGDDINRRYDSEFQTMLQHLQPTAENAYEYFTKIATSLFESGINWGRVVALLGFGYRLALHVYQHGLTGFLGQVTRFVVDFMLHHSIARWIAQRGGWVAALNLGN", "notes": "also called recombinant Bak; source: E. coli BL21(DE3) RIL, purified (Ni-NTA, Superdex 75 gel filtration); not shown: His6, C-terminal, kept"}}, "key": {"[1]": {"target": "T1, recombinant human Bax (residues 1–172;C62S·C126S) (human, UniProt Q07812 1-172, C62S | C126S)", "T1 construct": "Bax, human, residues 1-172 with C62S and C126S, cloned into pET21a-m1; also called recombinant Bax; source: E. coli BL21(DE3) RIL, purified (Ni-NTA, Superdex 75 gel filtration)", "T1 sequence (Q07812 1-172 C62S/C126S)": "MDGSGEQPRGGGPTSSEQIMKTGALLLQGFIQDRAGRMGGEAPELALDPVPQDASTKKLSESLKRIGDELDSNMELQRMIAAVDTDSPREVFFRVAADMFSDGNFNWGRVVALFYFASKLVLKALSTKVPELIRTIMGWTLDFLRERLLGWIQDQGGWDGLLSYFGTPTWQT", "assay": "SEC; separately purified proteins mixed at a molar ratio of 1:3, incubated for 1 h; Superdex 200 increase 10/300 GL; no detergent; peak fractions on SDS–PAGE", "conditions": "both partners purified"}, "[2]": {"target": "B1", "assay": "ITC; Pxt1 peptide (0.8 mM) titrated into 80 μM recombinant Bak; no detergent; performed as in ref. 27", "conditions": "both partners purified"}, "[3]": {"target": "the molecule itself", "assay": "SEC; 100 μM Bak, 1 mM Pxt1 BH3 peptide and 1% CHAPS; Superdex 75 10/300 GL"}}}
{"binder": "EEIIHKLAMQLRHIGDNIDHRMVRED (peptide, UniProt Q8NFP0 76-101, looked up, Pxt1, human, BH3 domain, residues 76-101, cloned into pET21a-m2; it is surmised to be the recombinant pET21a-m2 product and not the synthetic peptide; also called Pxt1 BH3 fragment; human Pxt1 BH3 domain; source: separately purified (the recombinant construct was made in E. coli BL21(DE3) RIL))", "note": "[human Pxt1(76–101) BH3 fragment, separately purified, as mixed with recombinant Bax]", "values": [{"measurement": "binding result", "setting": "[1]", "result": "binds"}]}
{"binder": "EEIIHKLAMQLRHIGDNIDHRMVRED (peptide, UniProt Q8NFP0 76-101, looked up, Pxt1, human, residues 76-101; also called human Pxt1 BH3; Pxt1 BH3 peptide; source: synthetic peptide (Peptron, Korea))", "note": "[synthetic human Pxt1(76–101) peptide]", "values": [{"measurement": "Kd", "setting": "[2]", "result": 15.4, "unit": "µM"}]}
{"binder": "B1", "values": [{"measurement": "stoichiometry N", "setting": "[3]", "result": 2}]}
